Reference: patent US20110301095A1 (SANFORD BURNHAM MEDICAL RESEARCH INSTITUTE CALIFORNIA, published 2011)

Experiments:
[1] = target: Flag-HIF-1α (mouse HIF-1α in pCVM-Flag vector, expressed in transfected cells) (mouse) (UniProt Q61221); assay: cell-based or functional assay
[2] = target: T1, Flag-HIF-1α (mouse HIF-1α in pCVM-Flag vector, expressed in transfected cells) (mouse, UniProt Q61221-2 1-822, limits assumed); assay: co-expression in 293T cells, immunoprecipitation of Flag-HIF-1α with M2 beads, immunoblot
T1 construct: not shown: Flag tag
T1 sequence (Q61221 other isoform, or with tags, fused parts or gaps limits assumed): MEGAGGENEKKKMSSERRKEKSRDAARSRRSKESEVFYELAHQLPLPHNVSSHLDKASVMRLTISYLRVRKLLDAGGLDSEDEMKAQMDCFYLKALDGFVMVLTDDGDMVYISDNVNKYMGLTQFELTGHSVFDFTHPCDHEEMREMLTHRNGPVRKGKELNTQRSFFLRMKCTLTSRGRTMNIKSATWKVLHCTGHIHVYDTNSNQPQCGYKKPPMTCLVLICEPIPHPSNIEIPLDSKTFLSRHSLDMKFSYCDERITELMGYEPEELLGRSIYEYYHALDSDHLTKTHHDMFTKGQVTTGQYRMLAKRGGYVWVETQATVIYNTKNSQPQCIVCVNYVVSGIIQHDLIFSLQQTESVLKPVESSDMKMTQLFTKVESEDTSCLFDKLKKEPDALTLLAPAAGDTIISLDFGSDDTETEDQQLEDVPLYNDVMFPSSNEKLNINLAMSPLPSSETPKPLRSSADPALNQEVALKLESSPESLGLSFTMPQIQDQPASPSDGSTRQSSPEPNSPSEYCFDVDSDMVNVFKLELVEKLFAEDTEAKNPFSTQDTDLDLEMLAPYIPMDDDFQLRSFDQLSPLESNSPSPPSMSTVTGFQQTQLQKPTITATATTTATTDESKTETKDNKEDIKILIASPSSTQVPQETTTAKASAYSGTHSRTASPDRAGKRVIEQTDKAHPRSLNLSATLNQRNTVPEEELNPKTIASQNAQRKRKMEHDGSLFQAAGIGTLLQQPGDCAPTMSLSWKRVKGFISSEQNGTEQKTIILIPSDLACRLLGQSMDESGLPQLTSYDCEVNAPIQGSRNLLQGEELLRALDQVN
Procedure: Immunoprecipitation and Western blotting. For immunoprecipitation, cells were harvested in lysis buffer containing 50 mM Tris-HCl pH7.5, 150 mM NaCl, 0.5% NP40, 1 mM EDTA, 1 mM sodium orthovanadate, 1mM PMSF, 10 μg/ml aprotinin, 10 μg/ml leupeptine and 10 μg/ml pepstatin A. To immunoprecipitate Flag-tagged proteins, lysates were incubated with M2 beads (Sigma) overnight, the beads were washed 3 times, and precipitated proteins were eluted with 1 mg/ml of flag peptide. To immunoprecipitate endogenous proteins, cells lysates were incubated with 3 μg of primary antibodies overnight, and followed by incubation with Protein G beads for 1 h. After washing 3 times, the precipitated proteins were eluted with SDS loading buffer. To extract whole cell lysate, cells were harvested using RIPA buffer (50 mM Tris-HCl (pH7.5), 150 mM NaCl, 1% Triton X-100, 0.1% SDS, 0.1% Na-deoxycholate, 1 mM EDTA, 1 mM sodium orthovanadate, 1 mM PMSF, 10 μg/ml aprotinin, and 10 μg/ml leupeptine). Cell lysates were subjected to SDS-PAGE and proteins transferred onto a nitrocellulose membrane (Osmonics Inc.). The membrane was probed with primary antibodies followed by a secondary antibody conjugated with fluorescent dye and detected by the Odyssey detecting system ([…]).

Flag-HIF-1α (mouse HIF-1α in pCVM-Flag vector, expressed in transfected cells) (mouse), sequence (Q61221 other isoform, or with tags, fused parts or gaps limits assumed): as above

HRE-Luc luciferase activity in TRAMP-C cells [1] [fold] | binding result [2] | Molecule
6 |  | exogenous FoxA2 expressed in TRAMP-C cells (luciferase assay of FIG. 3A)
 | no binding | HA-FoxA1 (HA-tagged rat FoxA1 in pcDNA3) (other, UniProt P23512 1-466, looked up, not shown: HA tag) MLGTVKMEGHESNDWNSYYADTQEAYSSVPVSNMNSGLGSMNSMNTYMTMNTMTTSGNMTPASFNMSYANPGLGAGLSPGAVAGMPGGSAGAMNSMTAAGVTAMGAALSPGGMGSMGAQPAASMNGLGPYAAAMNPCMSPMAYAPSNLGRSRAGGGGDAKTFKRSYPHAKPPYSYISLITMAIQQAPSKMLTLSEIYQWIMDLFPYYRQNQQRWQNSIRHSLSFNACFVKVARSPDKPGKGSYWTLHPDSGNMFENGCYLRRQKRFKCEKQPGAGGGSGGGGSKGVPENRKDPSGPVNPSAESPIHRGVHGKASQLEGAPAPGPAASPQTLDHSGATATGGGSELKSPASSSAPPISSGPGGWICTPLSPTWLAPHESQLHLKGAPHYSFNHPFSINNLMSSSEQQHKLDFKAYEQALQYSPYGATLPASLPLGGASVATRSPIEPSALEPAYYQGVYSRPVLNTS
